# Measured values: patent publication US20040053206A1 (DYAX, published 2004)
# Residue numbers refer to the chain shown, from its start.
# B1: KKII/3#6 (designed binder)
# chain: MHSFCAFKADDGHCKANHQRFFFNIFTRQCEEFSYGGCGGNQNRFESLEECKKMCTRD
# notes: also called LACI(K1) variant
# B2: KKII/3#9 (designed binder)
# chain: B1 chain
# notes: also called LACI(K1) variant
# B3: KKII/3#2 (designed binder)
# chain: B1 chain with H13P, Q19L
# notes: also called LACI(K1) variant
# B4: KKII/3#10 (designed binder)
# chain: B1 chain with A16G, N17A, Q19L, S34I, G39E
# notes: also called LACI(K1) variant
# B5: KKII/3#4 (designed binder)
# chain: B1 chain with E32Q, S34T, G39A
# notes: also called LACI(K1) variant
# B6: KKII/3#3 (designed binder)
# chain: B1 chain with S34T
# notes: also called LACI(K1) variant
# B7: KKII/3#5 (designed binder)
# chain: B1 chain with N17S, H18L, Q19P, S34I
# notes: also called LACI(K1) variant
# B8: KKII/3#1 (designed binder)
# chain: B1 chain with N17S, H18L, Q19P, S34I, G39E
# notes: also called LACI(K1) variant
# B9: PEP-1 KI polypeptide (designed binder)
# chain: EAMHSFCAFKADDGPCRAAHPRWFFNIFTRQCEEFIYGGCEGNQNRFESLEECKKMCTRD
# notes: also called DX88
# Tests used:
# [1] = target: T1, human plasma kallikrein (human, UniProt P03952 20-638); assay: phage display selection
# T1 sequence (P03952 20-638 limits assumed): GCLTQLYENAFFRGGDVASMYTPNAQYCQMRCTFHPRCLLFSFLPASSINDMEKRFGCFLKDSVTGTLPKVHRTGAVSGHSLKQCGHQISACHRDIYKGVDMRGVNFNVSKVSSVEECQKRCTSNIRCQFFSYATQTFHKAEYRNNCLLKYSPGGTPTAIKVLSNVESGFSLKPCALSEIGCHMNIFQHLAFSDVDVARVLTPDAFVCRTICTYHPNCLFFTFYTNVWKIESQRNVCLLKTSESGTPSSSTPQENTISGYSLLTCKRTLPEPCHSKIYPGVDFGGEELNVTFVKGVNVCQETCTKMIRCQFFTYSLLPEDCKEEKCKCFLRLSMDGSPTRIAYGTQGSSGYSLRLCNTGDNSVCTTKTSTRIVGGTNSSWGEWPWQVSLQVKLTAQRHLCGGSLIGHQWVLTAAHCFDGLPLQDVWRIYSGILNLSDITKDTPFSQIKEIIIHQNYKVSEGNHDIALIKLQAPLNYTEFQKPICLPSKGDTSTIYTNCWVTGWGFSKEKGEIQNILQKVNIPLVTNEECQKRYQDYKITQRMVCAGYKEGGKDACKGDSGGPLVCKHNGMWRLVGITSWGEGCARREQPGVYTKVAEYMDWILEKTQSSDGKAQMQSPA
# [2] = target: human plasma factor XIa (human, UniProt P03951 19-625); assay: protease inhibition, apparent Ki (Ki,app)
# [3] = target: T1, human plasma kallikrein; assay: protease inhibition, apparent Ki (Ki,app)
# [4] = target: human plasmin (human, UniProt P00747 97-810, limits assumed); assay: protease inhibition, apparent Ki (Ki,app)
# human plasmin, sequence (P00747 97-810 limits assumed): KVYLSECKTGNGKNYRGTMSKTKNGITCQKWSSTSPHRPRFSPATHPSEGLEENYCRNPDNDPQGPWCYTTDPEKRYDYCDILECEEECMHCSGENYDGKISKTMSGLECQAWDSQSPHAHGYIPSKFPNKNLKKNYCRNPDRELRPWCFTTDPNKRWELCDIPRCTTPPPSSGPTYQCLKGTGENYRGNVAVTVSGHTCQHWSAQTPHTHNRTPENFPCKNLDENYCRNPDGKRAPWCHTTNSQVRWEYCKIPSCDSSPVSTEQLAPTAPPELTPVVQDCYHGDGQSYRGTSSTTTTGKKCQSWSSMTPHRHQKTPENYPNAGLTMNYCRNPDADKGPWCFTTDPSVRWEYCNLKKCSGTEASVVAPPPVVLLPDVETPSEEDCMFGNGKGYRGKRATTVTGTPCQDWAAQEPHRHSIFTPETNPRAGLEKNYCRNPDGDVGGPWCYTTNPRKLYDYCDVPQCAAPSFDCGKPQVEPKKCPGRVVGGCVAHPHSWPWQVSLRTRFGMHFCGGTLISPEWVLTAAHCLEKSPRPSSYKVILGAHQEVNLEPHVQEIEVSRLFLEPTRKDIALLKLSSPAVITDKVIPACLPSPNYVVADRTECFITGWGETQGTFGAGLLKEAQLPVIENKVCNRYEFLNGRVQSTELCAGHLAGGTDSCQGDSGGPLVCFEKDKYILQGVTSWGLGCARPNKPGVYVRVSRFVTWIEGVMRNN
# [5] = target: porcine pancreatic kallikrein (porcine, UniProt P00752 8-246); assay: protease inhibition, apparent Ki (Ki,app)
# porcine pancreatic kallikrein, sequence (P00752 8-246): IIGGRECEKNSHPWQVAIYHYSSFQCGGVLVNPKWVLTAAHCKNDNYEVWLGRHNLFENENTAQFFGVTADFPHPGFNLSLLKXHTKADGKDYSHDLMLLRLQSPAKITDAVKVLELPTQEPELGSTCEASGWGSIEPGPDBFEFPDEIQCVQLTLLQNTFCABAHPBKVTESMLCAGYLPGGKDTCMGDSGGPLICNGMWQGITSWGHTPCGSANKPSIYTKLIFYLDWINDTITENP
# [6] = target: T1, human plasma kallikrein; assay: comparison of Ki,app values, reference aprotinin
Binder,binding result [1],other results
B1,binds,
B2,binds,
B3,binds,
B4,binds,
B5,binds,
B6,binds,
B7,binds,
B8,binds,
B9,,"Ki [2]: 10 nM; Ki [3]: 0.044 nM; Ki [4]: 140 nM; Ki [5]: 27000 nM; fold higher affinity (Ki,app) than aprotinin [6]: 1000 fold"
